How the values were obtained:
c-Src SH2 = test: SH2 binding enrichment of the phosphorylated peptide, bacterial display (enrichment ratio); higher = better substrate or ligand; peptides without Tyr show the background
SHP2-C SH2 = test: as above
Grb2 SH2 = Grb2 SH2 (UniProt P62993); test: as above
Jak2 = Jak2 (UniProt O60674); test: phosphorylation enrichment, bacterial display (enrichment ratio); higher = better substrate or ligand; peptides without Tyr show the background
Fer (mouse) = test: as above
c-Src = test: as above
c-Abl (mouse) = test: as above
EPHB2 = EPHB2 (UniProt P29323); test: as above
AncSZ = test: as above
Fes = Fes (UniProt P07332); test: as above
Fyn = Fyn (UniProt P06241); test: as above
Fyn, sequence (P06241 whole entry, looked up): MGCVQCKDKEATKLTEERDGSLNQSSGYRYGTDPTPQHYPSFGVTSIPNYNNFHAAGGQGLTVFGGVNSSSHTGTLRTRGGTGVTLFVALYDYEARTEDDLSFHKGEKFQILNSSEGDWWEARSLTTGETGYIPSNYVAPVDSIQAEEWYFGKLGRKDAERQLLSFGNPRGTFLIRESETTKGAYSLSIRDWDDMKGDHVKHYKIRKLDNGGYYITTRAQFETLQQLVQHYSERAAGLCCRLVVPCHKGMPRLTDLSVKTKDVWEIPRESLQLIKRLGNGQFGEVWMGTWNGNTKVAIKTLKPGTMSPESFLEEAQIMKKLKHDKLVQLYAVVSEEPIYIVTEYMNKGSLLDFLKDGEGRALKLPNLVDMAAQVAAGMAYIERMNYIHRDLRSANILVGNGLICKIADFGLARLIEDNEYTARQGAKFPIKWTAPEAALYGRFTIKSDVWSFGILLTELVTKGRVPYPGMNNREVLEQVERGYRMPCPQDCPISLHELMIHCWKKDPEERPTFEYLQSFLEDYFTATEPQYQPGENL

MERTK = MERTK (UniProt Q12866); test: as above
Hck = Hck (UniProt P08631); test: as above
Hck, sequence (P08631 whole entry, looked up): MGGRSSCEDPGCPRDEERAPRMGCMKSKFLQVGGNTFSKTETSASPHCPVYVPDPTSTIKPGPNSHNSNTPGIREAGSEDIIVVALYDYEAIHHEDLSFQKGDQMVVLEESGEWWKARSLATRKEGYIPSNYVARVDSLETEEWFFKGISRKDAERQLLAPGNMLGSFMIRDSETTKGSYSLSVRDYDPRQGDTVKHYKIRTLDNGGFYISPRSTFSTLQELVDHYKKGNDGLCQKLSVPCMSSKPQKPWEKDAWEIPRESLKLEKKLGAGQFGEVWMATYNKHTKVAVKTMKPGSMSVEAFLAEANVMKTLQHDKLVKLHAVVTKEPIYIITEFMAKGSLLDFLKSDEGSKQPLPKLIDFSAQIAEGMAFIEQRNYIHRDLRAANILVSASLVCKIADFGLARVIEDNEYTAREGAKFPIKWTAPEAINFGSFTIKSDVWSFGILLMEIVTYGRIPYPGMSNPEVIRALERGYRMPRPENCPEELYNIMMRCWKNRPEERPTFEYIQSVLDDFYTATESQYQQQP

FGFR3 = FGFR3 (UniProt P22607); test: as above
FGFR3, sequence (P22607 whole entry, looked up): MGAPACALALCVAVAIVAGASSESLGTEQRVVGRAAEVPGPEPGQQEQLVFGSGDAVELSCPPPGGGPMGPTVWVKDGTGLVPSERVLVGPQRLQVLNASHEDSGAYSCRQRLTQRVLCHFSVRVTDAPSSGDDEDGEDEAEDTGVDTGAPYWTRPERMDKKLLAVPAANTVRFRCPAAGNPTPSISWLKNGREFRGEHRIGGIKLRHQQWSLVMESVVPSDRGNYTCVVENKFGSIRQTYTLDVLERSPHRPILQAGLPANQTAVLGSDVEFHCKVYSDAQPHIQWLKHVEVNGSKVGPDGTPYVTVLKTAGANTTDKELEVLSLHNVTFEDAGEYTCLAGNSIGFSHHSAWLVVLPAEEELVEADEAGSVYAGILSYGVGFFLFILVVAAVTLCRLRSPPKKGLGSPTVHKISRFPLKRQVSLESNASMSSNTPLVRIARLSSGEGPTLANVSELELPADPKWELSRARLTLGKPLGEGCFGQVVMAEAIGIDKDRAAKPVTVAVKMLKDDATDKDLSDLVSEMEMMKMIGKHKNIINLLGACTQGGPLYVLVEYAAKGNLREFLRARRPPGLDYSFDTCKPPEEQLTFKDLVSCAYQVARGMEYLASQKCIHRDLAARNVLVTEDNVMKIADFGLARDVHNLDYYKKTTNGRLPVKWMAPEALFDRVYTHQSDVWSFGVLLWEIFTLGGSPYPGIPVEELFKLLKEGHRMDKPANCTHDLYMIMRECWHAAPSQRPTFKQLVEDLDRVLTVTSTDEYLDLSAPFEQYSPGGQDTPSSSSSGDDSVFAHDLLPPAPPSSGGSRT

FGFR1 = FGFR1 (UniProt P11362); test: as above
FGFR1, sequence (P11362 whole entry, looked up): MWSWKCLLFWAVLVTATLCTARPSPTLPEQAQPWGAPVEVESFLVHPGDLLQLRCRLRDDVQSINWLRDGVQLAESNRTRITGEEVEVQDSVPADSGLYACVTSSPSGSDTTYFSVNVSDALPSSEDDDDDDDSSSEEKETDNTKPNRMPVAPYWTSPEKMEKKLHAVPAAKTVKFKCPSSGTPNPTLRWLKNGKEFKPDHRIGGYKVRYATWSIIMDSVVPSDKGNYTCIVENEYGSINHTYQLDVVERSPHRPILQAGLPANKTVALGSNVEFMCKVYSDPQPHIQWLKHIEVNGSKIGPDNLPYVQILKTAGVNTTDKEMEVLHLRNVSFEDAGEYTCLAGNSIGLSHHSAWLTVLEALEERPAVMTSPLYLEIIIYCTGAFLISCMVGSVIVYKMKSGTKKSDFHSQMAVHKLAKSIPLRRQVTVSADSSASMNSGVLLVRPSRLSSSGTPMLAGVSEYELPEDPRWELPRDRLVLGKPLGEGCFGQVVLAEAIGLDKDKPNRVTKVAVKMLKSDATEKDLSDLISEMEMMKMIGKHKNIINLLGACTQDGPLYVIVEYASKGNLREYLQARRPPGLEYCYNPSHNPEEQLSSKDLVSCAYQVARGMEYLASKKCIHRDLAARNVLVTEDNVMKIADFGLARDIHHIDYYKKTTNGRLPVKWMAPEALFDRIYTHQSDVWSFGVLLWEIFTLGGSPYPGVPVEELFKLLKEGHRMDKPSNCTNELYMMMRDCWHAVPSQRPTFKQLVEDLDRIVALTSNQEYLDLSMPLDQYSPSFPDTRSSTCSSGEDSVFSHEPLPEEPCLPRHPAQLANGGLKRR

EPHB1 = EPHB1 (UniProt P54762); test: as above
EPHB1, sequence (P54762 whole entry, looked up, the tested form may be a part): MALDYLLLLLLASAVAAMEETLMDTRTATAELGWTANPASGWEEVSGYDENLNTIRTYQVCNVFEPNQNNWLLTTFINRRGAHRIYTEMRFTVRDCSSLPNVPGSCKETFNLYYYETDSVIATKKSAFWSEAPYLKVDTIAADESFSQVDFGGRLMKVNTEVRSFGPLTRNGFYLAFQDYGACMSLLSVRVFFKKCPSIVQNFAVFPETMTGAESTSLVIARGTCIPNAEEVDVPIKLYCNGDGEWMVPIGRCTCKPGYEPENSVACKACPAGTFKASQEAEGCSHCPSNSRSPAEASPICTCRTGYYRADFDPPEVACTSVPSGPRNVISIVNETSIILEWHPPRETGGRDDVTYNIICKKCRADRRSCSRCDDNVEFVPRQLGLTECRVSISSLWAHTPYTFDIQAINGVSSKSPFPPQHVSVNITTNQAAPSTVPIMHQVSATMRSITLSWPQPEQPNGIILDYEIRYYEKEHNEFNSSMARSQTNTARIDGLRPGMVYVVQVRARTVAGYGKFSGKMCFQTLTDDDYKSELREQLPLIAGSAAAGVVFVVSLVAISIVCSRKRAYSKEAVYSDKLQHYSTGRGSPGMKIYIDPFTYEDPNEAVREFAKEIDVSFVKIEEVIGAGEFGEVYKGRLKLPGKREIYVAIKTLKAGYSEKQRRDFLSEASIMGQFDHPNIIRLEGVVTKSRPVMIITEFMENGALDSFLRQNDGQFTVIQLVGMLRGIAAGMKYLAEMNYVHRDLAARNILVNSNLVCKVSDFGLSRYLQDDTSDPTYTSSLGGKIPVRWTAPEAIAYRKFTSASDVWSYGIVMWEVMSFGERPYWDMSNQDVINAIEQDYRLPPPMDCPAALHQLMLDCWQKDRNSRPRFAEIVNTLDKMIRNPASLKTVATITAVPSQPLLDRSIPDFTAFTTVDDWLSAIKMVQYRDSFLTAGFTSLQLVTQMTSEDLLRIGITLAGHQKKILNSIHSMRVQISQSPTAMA
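Wherever SH2 binding enrichment of the phosphorylated peptide, bacterial display is given: peptide library displayed on the E. coli surface as eCPX fusions, selected cells deep-sequenced, score is each peptide's frequency after selection divided by its frequency in the input.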
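Wherever phosphorylation enrichment, bacterial display is given: 11-residue human phosphosite peptides and single-mutation variants displayed on the E. coli surface, counted by deep sequencing, each peptide's frequency after selection divided by its frequency in the unselected input library; frequency after pTyr selection over input frequency; kinase dosed for 20-30% of maximal phosphorylation in three min.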

Jak2, sequence (O60674 whole entry, looked up): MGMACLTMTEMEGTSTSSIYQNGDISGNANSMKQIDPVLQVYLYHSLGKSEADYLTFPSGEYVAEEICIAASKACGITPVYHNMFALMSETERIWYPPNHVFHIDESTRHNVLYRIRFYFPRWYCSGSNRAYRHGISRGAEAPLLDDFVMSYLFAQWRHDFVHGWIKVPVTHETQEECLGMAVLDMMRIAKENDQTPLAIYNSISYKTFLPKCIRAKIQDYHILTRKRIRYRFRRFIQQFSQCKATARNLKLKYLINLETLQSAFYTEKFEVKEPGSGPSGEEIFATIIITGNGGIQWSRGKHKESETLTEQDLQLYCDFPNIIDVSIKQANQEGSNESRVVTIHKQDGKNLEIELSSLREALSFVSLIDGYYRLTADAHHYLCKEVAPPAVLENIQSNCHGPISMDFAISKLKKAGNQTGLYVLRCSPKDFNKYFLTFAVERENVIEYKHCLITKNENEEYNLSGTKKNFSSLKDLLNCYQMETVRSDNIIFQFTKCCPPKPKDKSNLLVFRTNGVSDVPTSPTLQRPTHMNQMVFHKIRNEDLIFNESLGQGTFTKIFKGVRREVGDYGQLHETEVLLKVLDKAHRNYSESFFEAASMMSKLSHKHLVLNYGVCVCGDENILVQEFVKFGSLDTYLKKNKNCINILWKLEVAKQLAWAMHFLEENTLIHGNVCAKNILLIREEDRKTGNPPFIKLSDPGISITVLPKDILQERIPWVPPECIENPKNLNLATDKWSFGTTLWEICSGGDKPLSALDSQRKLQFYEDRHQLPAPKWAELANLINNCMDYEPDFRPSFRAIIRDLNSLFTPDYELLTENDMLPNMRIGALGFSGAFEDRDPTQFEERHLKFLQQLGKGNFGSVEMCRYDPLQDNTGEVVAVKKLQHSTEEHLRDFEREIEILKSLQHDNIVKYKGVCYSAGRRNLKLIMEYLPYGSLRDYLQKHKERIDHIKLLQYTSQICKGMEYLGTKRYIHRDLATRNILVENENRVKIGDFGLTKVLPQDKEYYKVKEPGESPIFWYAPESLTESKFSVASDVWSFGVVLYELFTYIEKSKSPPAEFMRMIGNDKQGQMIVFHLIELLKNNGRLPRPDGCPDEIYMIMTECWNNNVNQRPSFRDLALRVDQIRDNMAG
Grb2 SH2, sequence (P62993 whole entry, looked up): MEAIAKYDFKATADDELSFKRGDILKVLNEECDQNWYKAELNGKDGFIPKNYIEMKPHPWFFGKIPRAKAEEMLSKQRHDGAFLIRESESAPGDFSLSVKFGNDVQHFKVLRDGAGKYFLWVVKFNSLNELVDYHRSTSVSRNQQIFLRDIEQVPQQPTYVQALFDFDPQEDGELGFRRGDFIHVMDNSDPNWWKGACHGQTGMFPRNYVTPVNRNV

Row | Sequence | SH2 binding enrichment (c-Src SH2) | SH2 binding enrichment (SHP2-C SH2) | SH2 binding enrichment (Grb2 SH2) | phosphorylation enrichment (Jak2) | phosphorylation enrichment (Fer (mouse)) | phosphorylation enrichment (c-Src) | phosphorylation enrichment (c-Abl (mouse)) | phosphorylation enrichment (EPHB2) | phosphorylation enrichment (AncSZ) | phosphorylation enrichment (Fes) | phosphorylation enrichment (Fyn) | phosphorylation enrichment (MERTK) | phosphorylation enrichment (Hck) | phosphorylation enrichment (FGFR3) | phosphorylation enrichment (FGFR1) | phosphorylation enrichment (EPHB1)
1 | KVKPIYFRTQG [AR_Y916_H918R] | 1.51 | 1.76 | 1.63 | 0.491 | 0.477 | 0.454 | 0.626 | 0.396 | 0.701 | 0.644 | 0.404 | 0.401 | 0.495 | 0.448 | 0.475 | 0.356
2 | KWHREYNFKYV [RICTOR_Y835_S837F] | 1.22 | 1.35 | 1.49 | 0.693 | 0.357 | 0.38 | 0.528 | 0.392 | 1.04 | 0.786 | 0.394 | 0.376 | 0.397 | 0.564 | 0.358 | 0.454
3 | KYVKMYDNHQL [MYO9A_Y203] | 1.3 | 0.76 | 0.808 | 0.51 | 0.441 | 0.418 | 0.696 | 0.448 | 0.552 | 0.726 | 0.46 | 0.544 | 0.489 | 0.432 | 0.557 | 0.481
4 | LAAAGYDVKKN [H1-3_Y72_E75K] | 0.323 | 0.734 | 0.66 | 0.381 | 0.305 | 0.324 | 0.414 | 0.249 | 0.414 | 0.591 | 0.319 | 0.28 | 0.288 | 0.331 | 0.383 | 0.355
5 | LAEMNYVHQDL [EPHB1_Y740_R743Q] | 0.445 | 0.923 | 0.983 | 0.744 | 0.716 | 0.411 | 0.533 | 0.72 | 1.12 | 1.22 | 0.674 | 0.46 | 0.51 | 1.01 | 0.581 | 1.37
6 | LAVNPYGPPDL | 0.515 | 0.873 | 0.89 | 1.03 | 0.77 | 0.611 | 1.32 | 0.408 | 1.36 | 1.23 | 0.708 | 0.517 | 0.682 | 0.911 | 0.798 | 0.846
7 | LCHELYNTIRD [PBRM1_Y54_V49L] | 4 | 1.04 | 1.21 | 2.44 | 0.869 | 3.39 | 0.929 | 0.785 | 1.21 | 1.03 | 1 | 0.796 | 6.12 | 0.905 | 0.973 | 0.675
8 | LDFNEYFRDLN [HPRT1_Y198_YF] | 0.552 | 0.604 | 1.01 | 0.998 | 0.382 | 0.473 | 0.606 | 0.461 | 1.24 | 1.15 | 0.465 | 0.423 | 0.486 | 0.697 | 0.513 | 0.442
9 | LDLPGYCLLRE [CCDC116_Y291_P293L] | 0.661 | 0.674 | 0.686 | 2.21 | 1.63 | 0.736 | 1.65 | 1.28 | 1.82 | 2.21 | 0.908 | 0.765 | 0.636 | 1.39 | 1.03 | 1.88
10 | LDLSFYPTSSS [EMD_Y182_YF] | 0.417 | 0.686 | 0.698 | 0.976 | 0.799 | 0.404 | 1.69 | 0.904 | 1.42 | 1.77 | 0.968 | 0.596 | 0.89 | 0.902 | 0.991 | 1.33
11 | LEDDVYRKTCT [XPA_Y257_M256V] | 0.39 | 0.291 | 0.604 | 2.14 | 1.09 | 1.2 | 1.74 | 0.724 | 1.89 | 2.07 | 1 | 0.864 | 1.17 | 2.23 | 1.05 | 1.14
12 | LEHCQYVTEKV [ALDOB_Y204] | 0.744 | 0.821 | 0.756 | 1.68 | 1.91 | 0.822 | 1.18 | 1.55 | 1.83 | 2.85 | 1.59 | 1.04 | 0.839 | 1.91 | 1.6 | 1.74
13 | LEKISYVYMKR [SSX7_Y48] | 1.02 | 3.38 | 1.03 | 1.37 | 0.875 | 0.547 | 1.3 | 1.37 | 1.72 | 1.75 | 1.21 | 0.81 | 1.18 | 1.32 | 0.784 | 1.23
14 | LENSTYQYIRV [CRB1_Y760] | 1.72 | 8.46 | 1.55 | 1.11 | 25.5 | 3.07 | 0.91 | 5.02 | 2.11 | 1.86 | 5.14 | 7.03 | 10.9 | 7.65 | 13 | 12.1
15 | LERFIYNREEF [HLA-DPB1_Y59_F64Y_YF] | 0.607 | 0.631 | 0.704 | 1.39 | 0.719 | 2.07 | 0.857 | 0.76 | 1.68 | 1.49 | 1.08 | 0.652 | 1.29 | 1.79 | 0.632 | 0.63
16 | LFLALYTGLVR [PIGB_Y402_H407R] | 1.01 | 1.02 | 1.53 | 1.18 | 0.539 | 1.66 | 0.896 | 0.573 | 1.31 | 1.24 | 0.82 | 0.759 | 1.59 | 0.747 | 0.452 | 0.628
17 | LGGSPYPGVPV [FGFR1_Y701] | 0.546 | 0.874 | 0.873 | 0.503 | 0.413 | 0.359 | 0.675 | 0.615 | 0.591 | 0.881 | 0.524 | 0.4 | 0.481 | 0.463 | 0.514 | 0.493

Row | Sequence | SH2 binding enrichment (c-Src SH2) | SH2 binding enrichment (SHP2-C SH2) | SH2 binding enrichment (Grb2 SH2) | phosphorylation enrichment (Jak2) | phosphorylation enrichment (Fer (mouse)) | phosphorylation enrichment (c-Src) | phosphorylation enrichment (c-Abl (mouse)) | phosphorylation enrichment (EPHB2) | phosphorylation enrichment (AncSZ) | phosphorylation enrichment (Fes) | phosphorylation enrichment (Fyn) | phosphorylation enrichment (MERTK) | phosphorylation enrichment (Hck) | phosphorylation enrichment (FGFR3) | phosphorylation enrichment (FGFR1) | phosphorylation enrichment (EPHB1)
18 | LGKGSYAKVKS [TSSK2_Y23] | 1.65 | 1.5 | 0.777 | 1.54 | 0.693 | 1.53 | 1.26 | 0.875 | 0.884 | 1.83 | 1.37 | 1.11 | 0.985 | 0.844 | 0.955 | 0.482
19 | LGKGSYAKVRS [TSSK2_Y23_K27R] | 2.29 | 2.14 | 1.73 | 1.33 | 0.626 | 0.792 | 1.12 | 0.408 | 1.02 | 0.733 | 0.725 | 0.744 | 0.586 | 0.699 | 0.558 | 0.395
20 | LGMSQYFRLFN [CPT2_Y217_D213G] | 0.805 | 3.46 | 1.06 | 3.24 | 0.499 | 0.381 | 0.581 | 0.839 | 0.966 | 1.26 | 0.364 | 0.58 | 0.64 | 0.766 | 0.704 | 0.601
21 | LGNIVYSSLCG [BCOR_Y90_P85L] | 0.551 | 1.44 | 0.778 | 2.02 | 1.74 | 5.82 | 2.48 | 1.39 | 2.1 | 2.15 | 4.98 | 2.66 | 6.67 | 1.54 | 1.05 | 1.47
22 | LGSNGYKKLLK [SEPSECS_Y334] | 0.396 | 0.576 | 0.723 | 0.59 | 0.351 | 0.755 | 0.543 | 0.437 | 0.697 | 0.841 | 0.879 | 0.773 | 0.635 | 0.636 | 0.338 | 0.42
23 | LHQSTYQCYDV [SLC7A14_Y693_R695C] | 0.536 | 0.513 | 0.756 | 1.31 | 2.84 | 5.21 | 1.35 | 2.85 | 1.82 | 1.53 | 3.95 | 1.06 | 2.78 | 1.2 | 1.12 | 2.12
24 | LHRHAYPEQRQ [DPPA2_Y127] | 1.19 | 1.11 | 1.14 | 0.53 | 0.532 | 0.449 | 0.789 | 0.594 | 0.619 | 0.967 | 0.502 | 0.487 | 0.704 | 0.577 | 0.505 | 0.434
25 | LIQRNYKLAAQ [ALPK2_Y1975] | 0.399 | 0.649 | 0.961 | 0.44 | 0.576 | 0.49 | 0.773 | 0.604 | 1.19 | 1.21 | 0.571 | 0.72 | 0.833 | 0.962 | 0.937 | 1.13
26 | LIYTNYEVGKD [GSTP1_Y112_A114V] | 0.801 | 1.09 | 1.12 | 1.33 | 17.7 | 8.72 | 14.1 | 16.8 | 2.37 | 1.96 | 11.9 | 11.3 | 8.89 | 5.54 | 7.05 | 13.4
27 | LKRCQYVTEKV [ALDOA_Y204] | 0.53 | 0.654 | 0.742 | 2.26 | 0.794 | 0.796 | 1.24 | 0.89 | 1.59 | 1.75 | 0.823 | 0.672 | 0.689 | 0.924 | 1.11 | 1.9
28 | LLGFLYFFVCS [SLC34A2_Y109] | 0.776 | 1.22 | 1.06 | 2.88 | 1.43 | 2.1 | 2.89 | 1.76 | 1.66 | 3.17 | 1.26 | 1.04 | 0.948 | 1.81 | 1.03 | 1.17
29 | LLILEYAKFGS [RET_Y806_V804L_YF] | 1.21 | 1.76 | 2.19 | 1.15 | 0.699 | 0.976 | 0.635 | 0.991 | 1.34 | 1.52 | 1.01 | 0.585 | 0.901 | 1.38 | 0.85 | 1.49
30 | LLKAKYELLNA [POLR3A_Y714] | 1.95 | 0.444 | 0.964 | 0.707 | 0.423 | 0.405 | 0.544 | 0.491 | 0.582 | 0.614 | 0.466 | 0.418 | 0.496 | 0.493 | 0.423 | 0.454
31 | LLLLFCVVRYC [MPZ_Y177_Y177C] | 1.41 | 1.58 | 2.53 | 3.14 | 1.14 | 2.84 | 4.58 | 2.48 | 3.01 | 2.07 | 1.78 | 2.94 | 2.16 | 2.14 | 3.08 | 2.47
32 | LLNPSYNLPLD [TOM1L1_Y109_R108S] | 0.833 | 0.618 | 0.685 | 0.908 | 0.808 | 0.523 | 0.855 | 0.711 | 1.22 | 1.45 | 0.979 | 0.854 | 1.07 | 1.14 | 0.595 | 1.26
33 | LLVVVYKYRCY [PSEN1_Y154_L153V] | 0.829 | 2.37 | 2.16 | 0.994 | 1.25 | 0.662 | 1.65 | 1.22 | 2 | 3.48 | 0.703 | 0.474 | 1.08 | 1.22 | 1.08 | 2.05

Source: the supplement of paper PMC10065799, “High-throughput profiling of sequence recognition by tyrosine kinases and SH2 domains using bacterial peptide display” (eLife, 2023)
